According to the RNAGym collection of RNA variant scans (doi:10.1073/pnas.2313332121):

B1: TPR t1 (parent)
chain: GACCAAUCUGCCCUCAGAGCUCGAGAACAUCUUCGGAUGCAGAGGAGGCAGGCUUCGGUGGCGCGAUAGCGCCAACGUCCUCAACCUCCAAUGCAUCCCACCACAUGAUGAUGCCUGAAGAGCCUUGGUUUUUUG

Variants of: B1
Test: polymerase ribozyme fitness, log enrichment relative to wild type (log ratio); higher = more active; in vitro selection for triplet polymerase activity
How it was run: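 Frozen incubation at −7 °C formed the core of a single, triplicate in vitro selection round applied to PCR-built, transcribed mutant libraries of each subunit of a heterodimeric triplet polymerase ribozyme. Extended constructs were gel-excised, captured with streptavidin beads and amplified by RT-PCR, and input and output libraries were Illumina-sequenced with a filter of ≥10 input reads and ≥1 read per output. Fitness is the logarithm of genotype enrichment relative to wild-type enrichment, with inverse-variance-weighted replicate averaging, and the logarithm is base 2.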

Variant | polymerase ribozyme fitness (log ratio)
G63A C82U | -1.51
G63A U78C G93A G122A | -2.28
G63A G69C | -6.1
C62A U96A U112C | -0.2
C62G A118G | -1.44
C62G C70A C85A C98U C124U | -6.66
G63A C79U A95U C101U | -0.75
C62A U131C | -0.63
C62U A108C G117U C124A | -6.3
G63A C88U G120A G122U | -0.851
C62A C79U C82A A111C | -0.967
C62A A75G | -1.22
G63A C64A U81G C115G | -6.59
C62A C79U C89G U130A | -3.65
C62U C80G C124G | -5.66
C62A G69U | -3.2
G61U G117C U131C | -3.82
G63A G117A | -2.26
G63A G117C | -3.7
C62U A90C | -2.52
G63A A84U U92G G117A | -6.18
C62U G113U | -3.01
C62U G113C | -2.79
C62G G63A | -3.83

Variant | polymerase ribozyme fitness (log ratio)
C62G G63U | -7.04
C62U C85U U87A U92C C114U G117A | -6.6
C62G U116A | -4.13
C62A U133G | -2.87
G63A A105U U112A | -3.65
G61U U81G | -2.74
C62U C99U | -3.59
G61U U130C | 0.445
C62U C70G | -3.65
C62U C73U U81G A84C G113A | -3.57
G63A C101U | -0.216
G63A C99A A121C | -5.41
C62A G120U G122C | -1.92
C62U C86G G117A A119U | -0.588
C62U G122U | 0.2
C62U G122A | -0.839
C62A G77U U78A A119U G128C | -5.16
G63A C88U A118C | -3.02
C62A A75G G93A | -2.34
C62A G93C | -2.37
C62A G93A | -2.07
G63A A119G | -0.0262
G61U U131A | -0.736
G63A G128C | -3.34

Variant | polymerase ribozyme fitness (log ratio)
G63A G128A | -2.19
C62G C115U | -2.93
G63A G93U | -2.58
C62G C88U | -1.37
G61U G120C | 1.18
G61U G120U | 1.51
C62A A74U U81C | -5.14
G61U C123G | 1.2
G61U C123A | 0.578
G61U U132A | 0.196
C62G C88G A91U U112A | -5.1
G63C A75U | -0.329
C62A U96G | -1.8
C62U A74U U78C G120A | -0.246
C62A C73A | -2.4
G61U C115U | -0.433
G61U C115A | 0.264
C62U C99U C101U | -3.02
G61U U78C G117U | -1.99
C62U A105U | -2.19
G61U G65A | -4.98
C62G C114U U116A | -5.69
C62A U87A A90U A111C | -5.52
C62G C79U G110A | -2.71

Variant | polymerase ribozyme fitness (log ratio)
C62U G63U U109G | -7.47
C62U G135A | -1.28
G63A A66U | -2.44
C62G A90G C97U A111C | -1.19
G61U G77A | -0.736
G63A U78C C123A | -0.604
G61U U87C C99U C115G | -4.63
C62A U81G G120A | -4.65
G61U U87G | 0.809
C62U U81G | -3.67
G63A C89A U131G | -3.23
C62U U130A | -0.419
G61U G113A C115U | -3.08
C62U A121G U125C | -0.0117
C62U G120C | 0.344
C62G G113U | -4.24
G63A G127C | -1.62
G63A U112A | -0.0284
G61U G122A | -0.264
C62G G135U | -2.31
G63A A111U G122A | -6.48
C62A C72U G117A U129A U130C | -2.9
C62G G117A | -2.78
C62U C115G | -2.51

Variant | polymerase ribozyme fitness (log ratio)
C62U C115A | 0.00277
G61U U106C G135U | -1.67
C62A U112A | -0.111
C62A U112C | 0.245
G63A G77U A105G | -4.78
C62U C86G | -0.606
G63A C82U C94U A95C C115U U132C | -2.7
G63A U78A A119U | -1.76
G61U G110U A111U | -4.03
G63A C104A | -2.41
C62U C76U G120C | 0.583
C62G C86A C99U C101U A121G G122U | -5.18
C62U U92G C99A C124U U131C | -5.96
G61U U129G U133A | -2.01
G63C A83U | -1.48
C62G U78G | -2.88
G63C A105G G120C | -2.96
C62A C85A | -2.47
C62A C85U | -0.762
C62U G77U | -0.487
C62A A83U U92A U116C | -5.36
C62A G117U | -3.38
C62A G117A | -2.71
G61U G110A | -0.469

Variant | polymerase ribozyme fitness (log ratio)
C62A C79A C115A G127A | -3.94
C62A C70U C86A | -4.26
C62U G63U U78G | -3.96
G63A C73A | -1.93
G61U U116C U130G | -0.407
G61U G120C U125A | 0.559
C62G G69U | -5.17
G61U U78G C94A U129A | -2.72
G63C A84G C94A | -3.04
C62G A95G | -1.49
C62U A95U A105U | -3.17
C62A C88U | -2.23
C62A C88A | -2.76
C62U U87G U109A | -5.76
G63A U131A | -1.11
C62U U78C A100U | -0.796
C62G C104A | -4.04
C62G C104U | -1.52
C62U U87C C88G C114A | -3.36
C62U C97U | -0.489
C62U C97G | -4.18
G63A G93C G113U G135A | -4.37
G63A C98G G117C G128A U133C | -5.29
G63A C115A | -1.19

Variant | polymerase ribozyme fitness (log ratio)
C62G C86U | -1.34
G63A A105U | -3.59
C62A U106A | -1.37
C62U A119G | 0.565
C62A C85U A121G | 0.356
C62G G120C | -0.544
C62G G120A | -0.673
G63A U129A | -1.64
G61U G63U | -4.98
G61U G63C | -3.05
G63A U92A | -4.6
C62A A74G | -5.22
G63A C89A | -3.19
C62U C97U C115G | -3.22
C62A G113A | -2.02
G63C A91U | -2.7
G63A G77U C79U A100C | -2.62
G61U U92G U126A U129G | -5.18
C62A G110A U126G | -3.4
C62U C86U G117C U132A | -4.51
C62U C76U G127A | -2.58
C62A C86A C98U | -3.12
G61U U106G A108U | -4.45
